Assay results taken from article doi:10.1101/2024.11.25.625210.

Molecular target: Tom1 (S. cerevisiae HECT ubiquitin ligase), full-length, wild type (S. cerevisiae) (UniProt Q03280)
Assay: cryo-EM structure

UniProt Q03280, sequence (Q03280 whole entry): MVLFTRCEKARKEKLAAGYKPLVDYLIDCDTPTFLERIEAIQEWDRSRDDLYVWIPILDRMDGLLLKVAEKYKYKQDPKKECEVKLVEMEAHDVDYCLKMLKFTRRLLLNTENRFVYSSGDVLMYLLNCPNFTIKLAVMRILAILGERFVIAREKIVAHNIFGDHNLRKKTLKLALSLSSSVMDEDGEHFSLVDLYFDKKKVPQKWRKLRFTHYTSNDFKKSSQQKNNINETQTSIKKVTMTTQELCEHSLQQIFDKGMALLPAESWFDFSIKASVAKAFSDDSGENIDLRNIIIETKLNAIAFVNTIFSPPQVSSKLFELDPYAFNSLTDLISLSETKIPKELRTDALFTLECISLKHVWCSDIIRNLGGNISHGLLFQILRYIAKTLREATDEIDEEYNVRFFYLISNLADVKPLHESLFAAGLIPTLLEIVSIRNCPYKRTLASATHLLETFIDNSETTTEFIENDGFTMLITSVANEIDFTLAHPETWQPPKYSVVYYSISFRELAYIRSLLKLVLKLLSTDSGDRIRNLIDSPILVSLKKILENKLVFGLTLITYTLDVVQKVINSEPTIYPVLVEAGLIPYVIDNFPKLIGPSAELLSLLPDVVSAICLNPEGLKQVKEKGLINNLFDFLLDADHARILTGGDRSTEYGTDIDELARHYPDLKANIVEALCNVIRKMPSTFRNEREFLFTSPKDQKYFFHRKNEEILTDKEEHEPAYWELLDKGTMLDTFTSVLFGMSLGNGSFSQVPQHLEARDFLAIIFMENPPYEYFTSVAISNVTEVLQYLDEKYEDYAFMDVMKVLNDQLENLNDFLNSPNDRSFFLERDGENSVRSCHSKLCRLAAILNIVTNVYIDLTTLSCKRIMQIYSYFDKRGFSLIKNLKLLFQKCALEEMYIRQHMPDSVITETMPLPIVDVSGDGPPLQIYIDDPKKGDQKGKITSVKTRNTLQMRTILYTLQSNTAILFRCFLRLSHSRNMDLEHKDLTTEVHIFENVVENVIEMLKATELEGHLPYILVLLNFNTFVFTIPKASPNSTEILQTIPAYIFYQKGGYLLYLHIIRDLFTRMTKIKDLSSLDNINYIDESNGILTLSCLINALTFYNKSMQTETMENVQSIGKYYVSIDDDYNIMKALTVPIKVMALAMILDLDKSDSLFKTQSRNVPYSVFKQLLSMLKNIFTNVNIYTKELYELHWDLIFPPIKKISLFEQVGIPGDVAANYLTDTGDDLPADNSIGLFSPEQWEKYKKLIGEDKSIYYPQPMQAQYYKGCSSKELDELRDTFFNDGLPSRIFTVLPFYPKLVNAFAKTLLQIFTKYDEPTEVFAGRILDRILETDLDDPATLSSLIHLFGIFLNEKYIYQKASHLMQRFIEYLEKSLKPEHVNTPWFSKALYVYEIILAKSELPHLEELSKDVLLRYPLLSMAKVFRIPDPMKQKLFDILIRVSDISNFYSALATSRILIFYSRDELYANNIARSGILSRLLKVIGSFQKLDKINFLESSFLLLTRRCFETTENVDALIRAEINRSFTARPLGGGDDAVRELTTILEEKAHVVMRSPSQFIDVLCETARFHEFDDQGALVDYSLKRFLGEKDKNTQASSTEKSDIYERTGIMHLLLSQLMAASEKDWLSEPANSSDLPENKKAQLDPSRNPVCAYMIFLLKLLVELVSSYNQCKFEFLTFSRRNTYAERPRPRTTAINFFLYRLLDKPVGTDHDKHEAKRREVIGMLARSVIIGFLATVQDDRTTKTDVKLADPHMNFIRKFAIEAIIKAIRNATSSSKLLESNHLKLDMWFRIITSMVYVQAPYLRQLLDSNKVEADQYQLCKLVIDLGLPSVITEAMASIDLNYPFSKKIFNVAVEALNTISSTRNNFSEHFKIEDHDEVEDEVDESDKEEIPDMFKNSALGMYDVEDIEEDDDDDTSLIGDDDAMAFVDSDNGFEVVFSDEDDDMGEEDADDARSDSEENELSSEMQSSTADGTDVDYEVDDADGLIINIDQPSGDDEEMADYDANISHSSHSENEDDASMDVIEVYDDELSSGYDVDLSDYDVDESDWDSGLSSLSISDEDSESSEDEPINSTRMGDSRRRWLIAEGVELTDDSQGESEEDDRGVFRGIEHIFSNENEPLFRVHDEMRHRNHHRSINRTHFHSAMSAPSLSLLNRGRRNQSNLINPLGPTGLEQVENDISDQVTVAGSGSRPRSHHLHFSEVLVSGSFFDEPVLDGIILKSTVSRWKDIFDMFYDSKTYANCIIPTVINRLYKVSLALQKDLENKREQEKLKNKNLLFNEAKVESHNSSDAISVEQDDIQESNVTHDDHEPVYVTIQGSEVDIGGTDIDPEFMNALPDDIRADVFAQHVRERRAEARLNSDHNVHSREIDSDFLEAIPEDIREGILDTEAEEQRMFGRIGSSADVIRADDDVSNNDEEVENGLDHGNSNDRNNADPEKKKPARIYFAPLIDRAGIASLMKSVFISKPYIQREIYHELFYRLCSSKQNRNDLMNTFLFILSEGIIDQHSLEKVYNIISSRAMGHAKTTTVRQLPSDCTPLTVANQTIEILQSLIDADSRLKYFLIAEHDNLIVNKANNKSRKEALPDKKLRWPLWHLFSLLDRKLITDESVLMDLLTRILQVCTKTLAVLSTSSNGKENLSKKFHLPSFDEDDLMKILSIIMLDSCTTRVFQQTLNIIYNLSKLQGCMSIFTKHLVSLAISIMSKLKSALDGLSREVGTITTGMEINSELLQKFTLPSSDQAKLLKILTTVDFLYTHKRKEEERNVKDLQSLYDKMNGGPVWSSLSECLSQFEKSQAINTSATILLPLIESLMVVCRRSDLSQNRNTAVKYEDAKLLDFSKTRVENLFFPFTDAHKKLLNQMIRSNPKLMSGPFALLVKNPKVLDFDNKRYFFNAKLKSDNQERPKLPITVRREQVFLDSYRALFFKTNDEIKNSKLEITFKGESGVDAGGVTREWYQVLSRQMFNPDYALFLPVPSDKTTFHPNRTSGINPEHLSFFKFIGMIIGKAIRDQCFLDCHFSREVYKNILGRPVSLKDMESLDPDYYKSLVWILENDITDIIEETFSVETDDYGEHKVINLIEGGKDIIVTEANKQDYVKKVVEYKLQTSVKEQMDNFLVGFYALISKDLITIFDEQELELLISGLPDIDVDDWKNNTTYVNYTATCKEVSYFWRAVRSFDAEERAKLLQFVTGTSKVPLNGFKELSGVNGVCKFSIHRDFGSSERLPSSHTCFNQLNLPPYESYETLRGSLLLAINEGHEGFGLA

- stoichiometry N: 4
Substance: ubiquitin (from UniProt P0CG48 1-76) (natural protein)
